In patent publication US20190002533A1 (Novartis, published 2019):

Experiments:
[1] = molecular target: VP1 of the pooled BKV serotype I resistance-associated variant (RAV) virus with 20 amino acid changes (BK virus (BKV) serotype I); test: cell-based or functional assay
[2] = molecular target: T1, JCV VLPs (JC virus (JCV), UniProt P03089 1-354); test: ELISA on plate-coated JCV VLPs (OD 450 nm)
T1 construct: also called JC virus VLPs; JCV consensus

[3] = molecular target: VP1 on chimeric infectious BKV serotype II (BK virus (BKV) serotype II, UniProt P14996 1-362); test: cell-based or functional assay

B1: P8D11 (antibody, human IgG1, lambda)
heavy: not shown
light: QSVLTQPPSVSVAPGKTARITCGGDNIGSRPVHWYQQKPGQAPILVVYDDSNRPSGIPERFSGSNSGNTATLTISRVEAGDEADYYCQVWSSSTDHPFGGGTKVTVLGQPKAAPSVTLFPPSSEELQANKATLVCLISDFYPGAVTVAWKADSSPVKAGVETTTPSKQSNNKYAASSYLSLTPEQWKSHRSYSCQVTHEGSTVEKTVAPTECS
shift in EC50 of neutralisation against wild-type virus [1]: 3.9 fold

B2: 2077-26-1 (antibody, V domains shown)
VH: EVQLQQSGPDLVKPGASMKLSCKASGYSFTGYTMNWVKQSHGKNLEWIGLFNPYNGGPSYNQKFKGKATLTVDKSSSTAYMELLSLTPEDSAVYYCARLRYYGIGDDFFDYWGQGTTLTVSS
VL: DIVMTQSHKFMSTSVGDRVSITCKASQDVGTAVAWYQEKPGQSPKLLIYWASTRHTGVPDRFTGSGSGTDFTLTISNVQSEDLAYYFCQQYSNYPYTFGGGTKLEIK
EC50 (read off the curve) [2]: ~0.07 nM

B3: 2077-28-2 (antibody, V domains shown)
VH: EVQLQQSGPELVKPGASMKISCKASGYSFTGYTMNWVKQSHGKNLEWIGLFNPYNGGATYNQRFKGKATLTVDKSSSTAYMDLLSLTSEDSAVYYCTRLRKYGIGDDFFDYWGQGTTLTVSS
VL: DIVMTQSHKFMSTSVGDRVSITCKASQDVGTAVAWYQQKPGQSPKLLIYWASTRHTGVPDRFTGSGSGTDFTLTISNVQSEDLADYFCQQYSTYTYTFGGGTKLEIK
EC50 (read off the curve) [2]: ~0.08 nM

B4: NEG447A (antibody, human IgG1, lambda, V domains shown)
VH: QVQLQESGPGLVKPSETLSLTCTVSGGSISRDYWSWVRQPPGAGLEWIGNIYYSGSTNYNPSLKSRVTISVATNKKQFSLKLTSVTAADTAVYYCARVPGCSSTSCIDGWFDPWGQGILVTVSS
VL: QSVLTQPPSVSAAPGQKVTISCSGSSSNIGNTYVSWYQQLPGTAPKLLIYDNNKRPSGIPDRFSGSKSGTSATLGITGLQTGDEADYYCGTWDSSLSAWVFGGGTRLTVLG
EC90 of neutralisation, fold change [3]: ~8 fold
